The results in this text go back to the nanobody polyreactivity screen of Harvey et al. (2022).

This data set is described as follows: yeast display, Sf9 membrane polyspecificity reagent, FACS + sequencing; frameworks hold sequencing errors. An outline of the steps: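 Nanobodies from a synthetic yeast display library (Saccharomyces cerevisiae BJ5465), induced 36–48 hours with galactose, were stained 1 hour at 4 °C with 10% biotinylated, detergent-solubilized Sf9 membrane reagent, enriched on streptavidin microbeads, then FACS-sorted. Anti-HA (expression) and streptavidin (reagent binding) fluorescence set low and high (top ~1%) gates. Polyreactivity labels come from the gate of origin. Genes were colony-PCR amplified, MiSeq 2 × 250 sequenced and filtered by CDR length.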
For “QVQLVESGGGLVQAGGSLRLSCAASGRTFRDNTMGWYRQAPGKERELVAGISSSTGSTYYADSVKGRFTISRDNAKNTVYLQMNSLKPEDTAVYYCAAEYADYWTYNMGYWGQGTQVTVSS”, the “polyreactivity (PSR sort gate)” value is given as “low polyreactivity”. For the sequence “QVQLVESGGGLVQAGGSLRLSCAASGLTFAANAMGWYRQAPGKERELVAAITSSGGSTYYADSVKGRFTISRDNAKNTVYLQMNSLKPEDTAVYYCAARASRPRFGYWGQGTLVTVSS”, the “polyreactivity (PSR sort gate)” value was “high polyreactivity”. Regarding “QVQLVESGGGLLQAGGSLRLSCAASGSTFVTNDMGWYRPAPGKERELVAAISSGSSTNYADSVKGRFTISRDNAKNSVYVHMNSLKPEDTAVYYCAADSLKRYDYWGQGTQVTVSS”, the “polyreactivity (PSR sort gate)” value is reported as “low polyreactivity”. Take “QVQLVESGGGLVQAGGSLRLSCAASGSTFRFNTMGWYRHAPGKDRELVAAITSGGSTYYADSVKGLFTISRDNAKNTVYLQMNSLKPEDTAVYYCAATWYIRGQCYYYWGQGTQVTVSS”: the “polyreactivity (PSR sort gate)” value was “high polyreactivity”.

“QVQLVESGGGLVQAGGSLRLSCAASGRIFIYNAMGWYRQAPGKEMELVAAISWSGGSTYYADSVKGRFTISRDNAKNTVYLQMNSLKPEDTAVYYCNARYYGPSWNSYDYWGQGTQVTVSS”: the “polyreactivity (PSR sort gate)” value is “high polyreactivity”. As to “QVQLVESGGGLVQAGGSLRLSCAASGSIFSVNAMGWYRQAPGKVRELVAAISWRGGSTYYADSVKGRFTISRYNAKTTVYLQMNSLKPEDTAGYYCNAVISVKRSTRYGYWGQGTQVTVSS”, the “polyreactivity (PSR sort gate)” value is reported as “low polyreactivity”. Take “QVQLVESGGGLVQAGGSLRLSCAASGSTFWPYAMGWYRQAPGKERELVAAINYSSGSTYYADSVKGRFTISRDNAKNTVYLQMNSLKPEDNAVYYCAKGWYAGYPYDYWGQGTQVTVSS”: the “polyreactivity (PSR sort gate)” value was “low polyreactivity”.

With “QVQLVESGGGLVQAGGSLRLSCAASGRIFRWYAMGWYRQAPGKERELVAAISSRGGSTYYADSVKGRFTISRDNAKNTVYLQMNSLKPEDTAVYYCAADTSGWQPRYDYWGQGTQVTVSS”, the “polyreactivity (PSR sort gate)” value is recorded as “high polyreactivity”. Turning to “QVQLVESGGGLVQAGGSLRLSCAASGRTFTAYAMGWYRQAPGKERELVAAITTSGGTTYYADSVKGRFTISRDNAKNTVYLQMNSLKPEDTAVYYCAADVVVSWWLIYDYWGQGTQVTVSS”, the “polyreactivity (PSR sort gate)” value was “low polyreactivity”. Take “QVELVESGGGLVQAGGSLRLSCAASGFTFVSYAMGWYRQAPGKEREFVATISKRGGSTYYADSVKGRFTISRDNAKNTVYLQMNSLKPEDTAVYYCAVRYPYYSYRAKLGYCGQGTQVTVSS”: the “polyreactivity (PSR sort gate)” value was “high polyreactivity”.

Turning to “QVQLVESGGGLVQAGGSLRLSCASSGRTFRGYVMGWYRQAPGKERELVASISYSGGSTYYADSVKGRFTISRDNAKNTVYLQMNSLKPEDTAVYYCAARKGYDQYRWRYSQNNYWGQGTQVTVSS”, the “polyreactivity (PSR sort gate)” value is given as “high polyreactivity”. The value for “QVQLVESGGGLVQAGGSLRLSCAASGFIFGGYAMGWYRQAPGKERELVARITRSGGSTYYADSVKGRFTISRDNAKNTVYLQMNSLKPEDTAVYYCNARYGKPAYQYGMDYWGQGTQVTVSS” was “low polyreactivity”. On to “QVQLVESGGGLVQAGGSLRLSCAASGFTLFANVMGWYRQAPGKERELVAAISWRSGNTYYADSVKGRFTISRDNAKNTVYLQMNSLKPEDTAVYYCAADTTGDQHSWGTSGIIEGDYWGQGTQVTVSS”, for which the “polyreactivity (PSR sort gate)” value is “low polyreactivity”. “QVQLVESGGGLVQAGGSLRLSCADSGSIFDGNAMGWYRQAPGKERALVAAISRRGGSTYYADSVKGRFTISRDKAKNTVYLQMNSLKPEDTAVYYCNAYLSYFDGNYWGQGTQVTVSS”: the “polyreactivity (PSR sort gate)” value was “high polyreactivity”. Take “QVQLVESGGGLVQAGGSLRLSCAASGSTFYHYAMGWYRKAPGKERELVAAISTSGGRTYYADSVKGRFTISRDNAKNTVYLQLNSLKPEDTAVYYCAARPGSWFPSVPSYNYWGQGTQVTVSS”: the “polyreactivity (PSR sort gate)” value was “low polyreactivity”. The value for “QVQLVDSGGGLVQAGGSLRLSCAASGSTCYYYNMGWYRQSPWKERELVAAISFIGGSTYYADSVKGRFTISRDNAKYTVYLQMNSLTPEDTAVFYCAAEFYRWGSLSFSNDYWGQGTQVTVSS” was “low polyreactivity”; that for “QVQLVESGGGLVQAGGSLRLSCAASGSIFPHNTMGWYRQAPGKERELVAAITRDGTSTYYADSVKGRFTISRDNAKNTVYLQMNSLKPEDTAVYYCAARRARSFYVTYYGVGFNYWGQGTQVTVSS” was “low polyreactivity”. In the case of “QVQLVESGGGLVQAGGSLRLSCAASGGTSYAYTMGWYRQAPGKERELVAAISGSTGSTYYADSVKGRFTISRDNAKNTVYLQMNSLKPEDTAVYYCNADISSLYSLSWFRYWYDYWGQGTQVTVSS”, the “polyreactivity (PSR sort gate)” value was “low polyreactivity”. As for “QVQLVESGGGLVQAGGSLRLSCAASGSTFIPNTMGWYRQEPGKERELVAAISRRGGSTNYADSVKGRFTISRDNAKYTVYLQMNSLKPEDTAVYYCAAVSPRRYRYDYWGQGTQVTVSS”, the “polyreactivity (PSR sort gate)” value is “low polyreactivity”.

Regarding “QVQLVESGGGLVQAGGSLRLSCAASGRIFKTNAMGWYRQAPGKERELVAAISRSGSRTSYADSVKGRFTISRDNAKNTVYLQMNSLKPEDTAVYYCATRGLYWKVGYWGQGTQVTVSS”, the “polyreactivity (PSR sort gate)” value is reported as “high polyreactivity”.

Regarding “QVQLVESGGGLVQAGGSLRLSCAASGLNFSGYAMGWYRQAPGKESEMVAAINSGTSTTYADSVKARFTISRDNAKNTVYLQMNSMKPDDTAVYSCSATLEGGWWATYGSDYWGRGTQVTVSS”, the “polyreactivity (PSR sort gate)” value is listed as “low polyreactivity”.

For “QVQLVESGGGLVQAGGSLRLSCAASGSIFNVYAMGWYRQAPGKERELVAAISSSGARTYYADSVKGRFTISRDNAKNTVYLQMNSLKPEDTAVYYCAARSILIRSGGGYPSVWRNYWGQGTQVTVSS”, the “polyreactivity (PSR sort gate)” value is recorded as “high polyreactivity”. In the case of “QVQLVESGGGLVQAGGSLRLSCAASGRIFFIYAMGWYRQAPGKERELVAAITWRGGRTYYADSVKGRFTISRDNAKNTVYLQMNSLKPEDTAVYYCAADYRDSYLFYYWGQGTQVTVSS”, the “polyreactivity (PSR sort gate)” value was “high polyreactivity”. Turning to “QVQLVESGGRLVQAGGSLRLSCAASGIIFPYNTMGWYRQSPGKERELVASIDDGGSTNYADSVKGRFTISRDNAKNTVYLQMNSLKPEDTAVYYCNADLFFIYVRQPGYDYWGQGTQVTVSS”, the “polyreactivity (PSR sort gate)” value is recorded as “low polyreactivity”. As to “QVQLVESGGGLVQAGGSLRLSCAASGIIFGWNTMGWYRQAPGKEREFVAAISSSGGSTYADSVKGRFTISRDNAKNTVYLQMNSLKPEDTAVYYCAASKQPGSFEFDYWGQGTQVTVSS”, the “polyreactivity (PSR sort gate)” value was “high polyreactivity”. With “QVQLVESGGGLVQAGGSLRLSCAASGLTLYKNGMGWYRQAPGKERELVAVISRSGGRTYYAESVKGRFTISRDNAKNTVYLQMNSLKPEDTSVYYCAKRYGYTEYYYWGQGTQVTVSS”, the “polyreactivity (PSR sort gate)” value is reported as “high polyreactivity”.

For “QVQLVESGGGLVQAGGSLSLSCAASGFTFDYYAMGWYRQAPGKERELVAAISTSGGSTYYADSVKGRFTISRDNAMNTVYLQMNSLKPEDTAVYYCNVVFYEYSSVSYDYWGQGTQVTVSS”, the “polyreactivity (PSR sort gate)” value is recorded as “high polyreactivity”. Turning to “QVQLVESGGGLVQAGGSLRLSCASSGFIFPWNAMGWYRQAPGKERELVADISTGTSRTYADSVKGRFTISRDNAKNTVYFQMNSLKPEDTAVYYFNKAHNYKYDWGQGTQVTVSS”, the “polyreactivity (PSR sort gate)” value is “low polyreactivity”.

“QVQLVESGGGLVQAGGSLRLSCAASAGILRQNTMGWYRQAPGKERELVAAISSSGGRTYYADSVKGRFTISRDNAKNTVYLKMNSLIPDDPAVYYCAGKIVSRYRVIYDYWGQGTQVTVSS”: the “polyreactivity (PSR sort gate)” value was “high polyreactivity”. On to “QVQLVESGGGLVQAGGSLRLSCDASGSILVAYAIGWYRQAPGKEREFVAAISSVGNTYYADSVKGRFTISRDNAKNTVYLQMNSLKPEDTAVYYCNAVYRVWYAEWSTVGSPHDYWGQGTQVTVSS”, for which the “polyreactivity (PSR sort gate)” value is “low polyreactivity”.
